Measured values taken from the DeepSol protein solubility set.

experiment: soluble on expression in E. coli; label from the status in PepcDB or PDB records

Sequence | soluble on expression in E. coli
MTSPSSDEDIIDIRVIKEEPESEPDSEAEPATTTNSTDSEDSVEQENKKLLETEKNRKREQKHKMLPNGTTSGTSDTGNQVPATSSAASSVDYTAMNAQDYLPTYSNTTLNYQPYQYQTAANGLLNYNNYSQYATANQLGSNYISPANFMQGGGISPLGFTTGTTGATTAAASVATSSASAVIGRSNGRSSSTVAASPADRSYSGVSGGQGQELTIQEFETVTEKIRRHGTYGQSKPPYSYISLITMAIQKSNSRQLTLSEIYNWIMDLFPYYQNNQQRWQNSIRHSLSFNDCFVKVARSPDKPGKGSFWTLHEHCGNMFENGCYLRRQKRFKVKEREPSRKKRNANSQQLHQQQHIPKMEIKEEDPTSITTTSSLGAYSLIPQISTKKEIKEELKAVQDATAAAANLGLIDPSGTPSAVNHSQPTSVISSVGTLGTTQAQMTLNGQYASPYLYSSDFATILPQSQNFLNNTLYNTTSSYPGIDYTNGVYQNTLYSSTNPNSAANL | not soluble
MTSRWGKYLLSGIMIAVLAGCQSRPTDRGQQYKDGRLEQSLELVNEPNAAGKPVNAKDYSDQVKVINQSSPGLYNRNSDTFNAVQNWMLAGADTSKLSLFGLNAYQMEGVDNFGNVQFTGYYTPVLQARYTPQGEFRHPLYRMPAKGKRRLPDRAAIYAGALDNRNLIIAYTNSLVDNFMMEVQGSGYVDYGDGRPLTFFGYAGKNGHAYRSIGKVLIDRGEVARADMSMQAIRQWAENHSEAEVRELLEQNPSFVFFKPVMYAPVKGASAVPLIAKASVASDKSLIPPGTTLLAEVPLLDDQGKFTGKYQMRLMVALDVGGAIKGQHFDIYQGIGHEAGQAAGFYNHYGRVWVLKNAQSSGPLFTAYKGGTQSEPTSNDSSLLVNNQDR | not soluble
MTTANTPVRPKSAIDAVADAYTEKLIELNPSFATTLGLPGHETEYQDYSPAGAAAHAEATRLALEALAGLEPSDDVDAVTLDAMRERLGLELEIHQSGWDAADLNNIASPAQDIRAIFDLMPTDTVEHWEHIAGRAANVPGAIEGYIASLRAAKDDRKVAAARQIRIVIEQTGRYAAEDGFFAKMAADASLGDAPLPAEVQDKLDAGTSAARSAYSALGAFLRDELLPVAPEKDAVGRERYSLASRSFIGAEVDLEETYAWGVQELERLISEQEKVAGQIKPGASIEEAKSILNNDPARQIKGTDALKAWMQELSDRAVSELADVHFDIPDVMKTLECMIAPTDEGGIYYTGPSDDFSRPGRMWWSVPAGEDTFTTWSETTTVFHEGVPGHHLQVATATYRRELLNNWRRNVCWVSGHGEGWALYAEQLMLELGYLKDPGDHMGMLDGQRMRAARVVFDIGVHLELPVPERWGTGTWTPEKGFDFLKANLDISEGQLQFEFTRYLGWPGQAPSYKVGQRLWEQIRAELESREGFDLKSFHSKALNIGSVGLDVLRRALL | soluble
MTTDSLSQIDTDQDEYGEEIEMASNSLGNLPDVVLQHLAPFLQWSTCRALSEVNLRFRSHFKQHLKEGQALSIKGQVSVGVGDRVNDCQNVSFLSEFYTIRVEMDDNMVVDWTLKLQSGVRTVVHRHYDGNTQTTTTKSVHLSSRDYLEKVLKWILARYQFKKIHLGVQGLAPLFSSYKGEIENVGISDEIEYLKLAEKFRPKHLTLFKPAQNTYNKGFFDLKKFPQLEELRMYGVPLDLDQLIESNISEVAADTIDKDIKLKHVRKIINNWKNGIINYKSIMISPSCSQFGIYCPHNQWSELTDHLVEANALYDNVVNIKEKIGSARYSPRSFEFEVWEADRY | not soluble
MTTFNYTNILTQAVDELSESQSYKGLFHQHKDGDPLPSAKSLYKIVELARAIIFPGYFGNSTVNSHTINYHIGVNVETLFGLLTEQILAGLCFGQENSKNATDDNEPCRETASLLAARFISKLPELRRILATDVEAAYYGDPAATCFGEIISCYPAIRAISNYRIAHELLILGVPLIPRFITEMAHSETGIDIHPGAQIGHHFTIDHGTGVVIGATSIIGNNVKLYQGVTLGAKSFPLDNNGNPIKGIPRHPILEDDVIVYSNATILGRVTIGKGATVGGNIWVTENVPAGSRIVQRKNKDELEHHHHHH | soluble
MTTHLPSTSQNGEEISAEQFNRIFHERNVIVLDCRSNGDSVKRANRFFCSLRLPALLQRRLMGGSMRLSTVPDLKDLNNSPDQCPEVLLIPGDSEQDEQLSAALARNLKSNHYRHFVLGEPVKTLLSQFPTLRDAADENWNTTFQMNSMPGQASGQQASSGPLLNLNQLRLEGEDQGGKQRAEFPVKLTNFLYLGNAETAKNRDVLKKYSISHVINVTSNLPNTFEEDPNMRYLRISADDNASHNLTKFFPEAISFIDDARRNDSACLVHCLAGISRSVTICLAYLMKTEMCTLDSAYEWVQKRNASIAPNFHFMGQLTDYEKMLGLNSNRVGVSRQAVNFDVHFFCIFKLKKKEENSPESRILAETAV | not soluble
MTTPLAQRIKSLIRLNGPLSVTDFFSLCLADPEHGYYKSREPFGRSGDFITAPEVSQLFGEMLGVFVVHAWQRHGAPAQTQLVEIGPGRGTMMSDMLRVIRRIAPPLYETMRVHLVETSPRLSAIQKETLTAHADRLTWHDSFDDVPEGFLLLVANELFDAIPIRQFVRTPQGFRERVVSLDANGELVFSTGLAGIDPTLLPPQPERQQLGTVFEVSPAREAVMTAICQRLSVHGGTALAIDYGHLVAGYGDTLQAMRNHAFDPPLAHPGEADLTSHVDFESLVKTAQATGVHVNGALRQGDFLHGLGLKERASALAAKATPDQTLEIAEAVNRLAGEGAGKMGELFKVIAVSSPALHLLPFRAVDLEHHHHHH | soluble
MTTQTTPAHIAMFSIAAHGHVNPSLEVIRELVARGHRVTYAIPPVFADKVAATGPRPVLYHSTLPGPDADPEAWGSTLLDNVEPFLNDAIQALPQLADAYADDIPDLVLHDITSYPARVLARRWGVPAVSLSPNLVAWKGYEEEVAEPMWREPRQTERGRAYYARFEAWLKENGITEHPDTFASHPPRSLVLIPKALQPHADRVDEDVYTFVGACQGDRAEEGGWQRPAGAEKVVLVSLGSAFTKQPAFYRECVRAFGNLPGWHLVLQIGRKVTPAELGELPDNVEVHDWVPQLAILRQADLFVTHAGAGGSQEGLATATPMIAVPQAVDQFGNADMLQGLGVARKLATEEATADLLRETALALVDDPEVARRLRRIQAEMAQEGGTRRAADLIEAELPARHERQEPVGDRPNVGDRPAGVRSDRQRSAL | soluble
MTVEQNEFLSSVQLQILAEQAIKQYPNEYQGSVKLLCQSENATFLVTTAQAKYALRIHRPNYHHLQDIESELAWLDALNQSGIEVPLAIADQDGQRVITLKLAEGISRYAVLFNWVNGSMPTTDVDPTAFQQLGQITAALHQHSKSWKRPEQFNRIVWNHDTMVGAQGHWGNWKHAPHLDQADHAVVEEAIARISTELCQYGAGEDRYGLIHADLRLTNLLLQDQQIGVIDFDDCGMSWFMHDLAAAISFNEHLDAAPQWVEHWLTGYEKTGHVQNHDYVMIPTFIMQRRIQMMAWNGSHAHTEMALSLGDQWSNETVRLCKKYLNGEMPVGRSNA | not soluble
MTVGVGGSTPAQALERLRNMMDGAQPIGLASYRARIAAAQAWMGEHGIAAAYLHAGSNLRYFSGVQWHPSERLVGALLPAEGALEYLAPAFEEGTVRDFQVVDGAIHTWEEHQDPYRLLLDRLEALGVGERSTVALCPSLPFGMFERLRQQAPGRNFVSAAPLIDQGRMRKSAEELALMQRAKDMTLEVQKAAASILREGISTTEVAEFIHQAHRKVGAPGSTFCIVLFGAASAFPHGVKHAQVLKDGDMVLIDTGCQVHGYQSDITRSYVFGTPSARQREFWGMERDAQLAAFEAARLGQPCEAVDAAARRSLEANGLGPDYRLPGLPHRTGHGIGMDVHEGPYLVRGDRTPLDVGMCFSNEPMICVPGEFGIRLEDHFYMTKEGPRWFT | not soluble
MTVLIAGAGIAGLSLGLTLHQIGVPFRIYEATAVLRPMGVGINLQPNAVRELLDLGLEAELDRIGVRTRQLGFYSKLGKTIWEEPRGIWAGYAWPQYSVHRGALQMMLYEALIARAGADCVVTGARAAGFETGPESATLILSDGRRVEGRLLIAADGIHSALRAQMYPNEGEPIWNGRVLWRATTRAPAYFGGGAMAMIGHDDLRLVSYPISEPDGDGMVEMNWIAEKRFPLDAAWKKEDWNRAADIGDFLPDFADWRFDWIDVPALIQGAEVVYEYPMVDRDPLPRWTGGSVTLMGDAAHPTYPVGSNGASQAILDARIIGARLLEHGITPRALAAYEAEVRPVTTAVGQANRAGGGPDGVLQRVEDLCGGDFDDIDTVIPHAELAAHAARYKSIAGFSIEELNARPRTIAEGARIPALEHHHHHH | not soluble
MTVRSRFFTEAEGKAVGVENAAAKGDVLLVCEHASATIPQKYGTLGLSADVLSSHAAWDPGALAVARLLSEKFHATLVYQRFSRLVYDCNRPPESPSAMPVKSEIYDIPGNFDLDEAERFARTSALYVPFHDRVSEIIAERQAAGRKVVVVTIHSFTPVYHGRFREVEIGILHDNDSRLADAMLAGAEGASLTVRRNDPYGPEDGVTHTLRLHALPDGLLNVMIEIRNDLIANEGEQAAIAGFLHELMGKALSSIEE | soluble
MTVTLTCRFKLELSKDQKQQFLDIATAYTNAVNYVLEQNLKDKSTNVKKLHRLYYKTIREDFDLPAQMAINVNRDVSAMYKTLWAQFKELKRRKPDSKAVKKFWDKPPKRKSLIVKYTYNRTASFKKINGEWHASLSTLQGRIKWIPMKGWSKHFEYLKSCKIGDPILTYDKSSKTFFLLVPVTLEVQEHQPKEIVGVDVGERHIAAVASTKGTRYLIDLPEEFKQRKQHYQRLRSELMSKGTRSAKRKLARISRREKRFTENVLHIIAKKLTTSHPGARFVLEDLTQIRANRITYRGKDKEARRQSEQWPFASLQQKIEYKAKLYYGVQSEKVDPSYTSQTCPRCGHVSKENRPDHGERFVCQSCGYEEHADIVGAINIALRVLAKDQQVNLEKLLGAVVSRPDAPRLG | not soluble
MTVTLTCRFKLELSKDQKQQFLDIATAYTNAVNYVLEQNLKDKSTNVKKLHRLYYKTIREDFDLPAQMAINVNRDVSAMYKTLWAQFKELKRRKPDSKAVKKFWDKPPKRKSLIVKYTYNRTASFKKINGEWHASLSTLQGRIKWIPMKGWSKHFEYLKSCKIGDPILTYDKSSKTFFLLVPVTLEVQEHQPKEIVGVDVGERHIAAVASTKGTRYLIDLPEEFKQRKQHYQRLRSELMSKGTRSAKRKLARISRREKRFTENVLHIIAKKLTTSHPGARFVLEDLTQIRANRITYRGKDKEARRQSEQWPFASLQQKIEYKAKLYYGVQSEKVDPSYTSQTCPRCGHVSKENRPDHGERFVCQSCGYEEHADIVGAINIALRVLAKDQQVNLEKLLGAVVSRPDAPRLGLEHHHHHH | soluble
MTWNPLALATALQTVPEQNIDVTNSENALIIKMNDYGDLQINILFTSRQMIIETFICPVSSISNPDEFNTFLLRNQKMMPLSSVGISSVQQEEYYIVFGALSLKSSLEDILLEITSLVDNALDLAEITEEYSHLEHHHHHH | soluble
MTYCLAIKVDQGLVFASDSRTHAGVDYASVYSKMYRFDLHSDRLMIVLAAGNLATTQAVINLIRRDLENPGALYNLNTVAYLYDAASYIGETSVRVQEQHASAMQRCGISGEASFILGGQIQGQPPEIYLIYPQGNYITVSPDNPYLQIGETKYGKPILDRMIAPATTLEDAARCALVSIDSTMRSNISVGPPVEVAIYRRNSFVVGHYLHLDYSSPLYALIQKQWAEGIRNAFTLLPRFEWEDGGSIGSEQSQLEHHHHHH | not soluble
